# Reference: the supplement of paper PMC10065799, “High-throughput profiling of sequence recognition by tyrosine kinases and SH2 domains using bacterial peptide display” (eLife, 2023)
# Tests used:
# [1] = target: Grb2 SH2 (UniProt P62993); experiment: SH2 binding enrichment of the phosphorylated peptide, bacterial display (enrichment ratio); higher = better substrate or ligand; peptides without Tyr show the background
# [2] = target: SHP2-C SH2; experiment: as above
# [3] = target: c-Src SH2; experiment: as above
# [4] = system: Fer (mouse); experiment: phosphorylation enrichment, bacterial display (enrichment ratio); higher = better substrate or ligand; peptides without Tyr show the background
# [5] = target: EPHB1 (UniProt P54762); experiment: as above
# [6] = target: FGFR3 (UniProt P22607); experiment: as above
# [7] = target: Jak2 (UniProt O60674); experiment: as above
# [8] = target: Fes (UniProt P07332); experiment: as above
# [9] = system: c-Src; experiment: as above
# [10] = system: c-Abl (mouse); experiment: as above
# [11] = target: Fyn (UniProt P06241); experiment: as above
# [12] = target: FGFR1 (UniProt P11362); experiment: as above
# [13] = target: EPHB2 (UniProt P29323); experiment: as above
# [14] = system: AncSZ; experiment: as above
# [15] = target: MERTK (UniProt Q12866); experiment: as above
# [16] = target: Hck (UniProt P08631); experiment: as above
# 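For SH2 binding enrichment of the phosphorylated peptide, bacterial display in this document: peptide library displayed on the E. coli surface as eCPX fusions, selected cells deep-sequenced, score is each peptide's frequency after selection divided by its frequency in the input.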
# 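For phosphorylation enrichment, bacterial display in this document: 11-residue human phosphosite peptides and single-mutation variants displayed on the E. coli surface, counted by deep sequencing, each peptide's frequency after selection divided by its frequency in the unselected input library; frequency after pTyr selection over input frequency; kinase dosed for 20-30% of maximal phosphorylation in three min.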
# Sequence of EPHB1 (P54762 whole entry, looked up): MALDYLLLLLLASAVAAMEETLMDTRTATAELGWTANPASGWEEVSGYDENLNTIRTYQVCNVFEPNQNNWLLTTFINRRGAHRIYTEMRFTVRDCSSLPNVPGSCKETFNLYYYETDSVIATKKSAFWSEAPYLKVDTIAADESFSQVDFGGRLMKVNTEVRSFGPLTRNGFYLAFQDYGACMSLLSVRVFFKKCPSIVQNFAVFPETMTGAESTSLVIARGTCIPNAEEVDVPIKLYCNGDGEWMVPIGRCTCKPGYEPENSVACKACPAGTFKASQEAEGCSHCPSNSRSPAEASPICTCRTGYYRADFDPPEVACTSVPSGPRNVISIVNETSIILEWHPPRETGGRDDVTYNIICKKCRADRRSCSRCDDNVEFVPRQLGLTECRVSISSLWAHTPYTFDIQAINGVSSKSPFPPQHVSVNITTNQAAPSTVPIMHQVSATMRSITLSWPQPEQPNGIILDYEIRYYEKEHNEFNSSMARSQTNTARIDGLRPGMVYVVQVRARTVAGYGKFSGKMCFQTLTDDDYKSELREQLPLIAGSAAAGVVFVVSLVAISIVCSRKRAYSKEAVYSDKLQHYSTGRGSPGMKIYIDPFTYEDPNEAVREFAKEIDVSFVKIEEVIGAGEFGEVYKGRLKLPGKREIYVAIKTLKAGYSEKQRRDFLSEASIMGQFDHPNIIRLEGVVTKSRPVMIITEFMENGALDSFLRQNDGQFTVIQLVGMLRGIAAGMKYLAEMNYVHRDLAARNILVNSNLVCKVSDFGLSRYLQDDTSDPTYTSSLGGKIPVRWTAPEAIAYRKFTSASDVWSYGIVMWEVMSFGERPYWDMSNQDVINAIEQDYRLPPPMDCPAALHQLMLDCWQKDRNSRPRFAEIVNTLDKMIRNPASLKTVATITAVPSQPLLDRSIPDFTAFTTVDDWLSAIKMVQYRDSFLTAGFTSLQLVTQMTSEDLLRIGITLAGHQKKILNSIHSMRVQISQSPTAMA
# Sequence of FGFR1 (P11362 whole entry, looked up): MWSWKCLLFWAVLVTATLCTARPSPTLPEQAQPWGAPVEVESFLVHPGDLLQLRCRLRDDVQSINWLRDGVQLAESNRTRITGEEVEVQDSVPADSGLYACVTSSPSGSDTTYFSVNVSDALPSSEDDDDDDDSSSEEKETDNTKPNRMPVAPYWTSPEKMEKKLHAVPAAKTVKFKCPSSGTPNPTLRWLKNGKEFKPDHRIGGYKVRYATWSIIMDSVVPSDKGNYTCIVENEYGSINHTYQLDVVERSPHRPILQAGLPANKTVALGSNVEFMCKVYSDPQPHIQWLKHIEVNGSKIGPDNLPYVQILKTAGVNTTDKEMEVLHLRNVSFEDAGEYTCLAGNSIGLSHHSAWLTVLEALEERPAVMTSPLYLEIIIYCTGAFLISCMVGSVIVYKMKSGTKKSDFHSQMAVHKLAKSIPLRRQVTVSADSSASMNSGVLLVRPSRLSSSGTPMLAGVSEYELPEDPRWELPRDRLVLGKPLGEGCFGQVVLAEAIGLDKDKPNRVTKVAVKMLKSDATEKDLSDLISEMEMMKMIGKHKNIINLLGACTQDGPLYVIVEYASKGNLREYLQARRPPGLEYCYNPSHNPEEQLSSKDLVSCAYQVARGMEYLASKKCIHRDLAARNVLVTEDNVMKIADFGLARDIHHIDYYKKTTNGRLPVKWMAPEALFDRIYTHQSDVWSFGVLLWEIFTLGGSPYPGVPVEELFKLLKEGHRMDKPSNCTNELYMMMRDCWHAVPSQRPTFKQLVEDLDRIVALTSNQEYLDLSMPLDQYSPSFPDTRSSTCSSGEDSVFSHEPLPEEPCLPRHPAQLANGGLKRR
# Sequence of Grb2 SH2 (P62993 whole entry, looked up): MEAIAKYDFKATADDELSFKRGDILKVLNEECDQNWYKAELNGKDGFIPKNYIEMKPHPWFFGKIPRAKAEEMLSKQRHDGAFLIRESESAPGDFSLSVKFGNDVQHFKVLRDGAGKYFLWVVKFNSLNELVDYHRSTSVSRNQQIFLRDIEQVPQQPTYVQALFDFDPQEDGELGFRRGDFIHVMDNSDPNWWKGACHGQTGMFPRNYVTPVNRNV
# Sequence of EPHB2 (P29323 whole entry, looked up): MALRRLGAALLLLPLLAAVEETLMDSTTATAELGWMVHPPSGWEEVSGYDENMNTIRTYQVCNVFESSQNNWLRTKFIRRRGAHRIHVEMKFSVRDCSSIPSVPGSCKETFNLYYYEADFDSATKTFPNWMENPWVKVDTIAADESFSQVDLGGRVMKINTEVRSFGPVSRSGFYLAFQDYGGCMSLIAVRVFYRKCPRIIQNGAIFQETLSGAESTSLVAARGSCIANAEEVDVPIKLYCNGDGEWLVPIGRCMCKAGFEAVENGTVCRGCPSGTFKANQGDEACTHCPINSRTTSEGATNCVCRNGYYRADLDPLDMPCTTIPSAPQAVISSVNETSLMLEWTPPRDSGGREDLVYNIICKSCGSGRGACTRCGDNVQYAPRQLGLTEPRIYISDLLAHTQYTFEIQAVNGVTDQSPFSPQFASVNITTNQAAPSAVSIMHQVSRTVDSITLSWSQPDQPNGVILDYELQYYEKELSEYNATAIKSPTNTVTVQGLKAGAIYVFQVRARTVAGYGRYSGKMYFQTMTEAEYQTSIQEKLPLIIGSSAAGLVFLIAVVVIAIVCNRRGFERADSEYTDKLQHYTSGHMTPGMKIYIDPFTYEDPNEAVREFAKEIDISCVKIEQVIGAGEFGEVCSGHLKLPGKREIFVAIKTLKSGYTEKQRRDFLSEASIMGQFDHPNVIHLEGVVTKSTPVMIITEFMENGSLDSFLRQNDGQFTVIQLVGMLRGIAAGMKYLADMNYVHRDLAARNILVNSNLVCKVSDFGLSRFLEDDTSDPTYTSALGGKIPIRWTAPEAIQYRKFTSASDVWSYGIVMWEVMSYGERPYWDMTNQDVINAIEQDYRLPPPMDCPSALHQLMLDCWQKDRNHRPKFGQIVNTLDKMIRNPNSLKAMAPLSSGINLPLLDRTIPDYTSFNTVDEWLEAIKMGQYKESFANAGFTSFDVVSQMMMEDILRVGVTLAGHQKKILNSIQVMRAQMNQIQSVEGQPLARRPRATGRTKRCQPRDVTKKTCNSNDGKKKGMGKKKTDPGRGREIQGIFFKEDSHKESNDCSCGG
# Sequence of MERTK (Q12866 whole entry, looked up): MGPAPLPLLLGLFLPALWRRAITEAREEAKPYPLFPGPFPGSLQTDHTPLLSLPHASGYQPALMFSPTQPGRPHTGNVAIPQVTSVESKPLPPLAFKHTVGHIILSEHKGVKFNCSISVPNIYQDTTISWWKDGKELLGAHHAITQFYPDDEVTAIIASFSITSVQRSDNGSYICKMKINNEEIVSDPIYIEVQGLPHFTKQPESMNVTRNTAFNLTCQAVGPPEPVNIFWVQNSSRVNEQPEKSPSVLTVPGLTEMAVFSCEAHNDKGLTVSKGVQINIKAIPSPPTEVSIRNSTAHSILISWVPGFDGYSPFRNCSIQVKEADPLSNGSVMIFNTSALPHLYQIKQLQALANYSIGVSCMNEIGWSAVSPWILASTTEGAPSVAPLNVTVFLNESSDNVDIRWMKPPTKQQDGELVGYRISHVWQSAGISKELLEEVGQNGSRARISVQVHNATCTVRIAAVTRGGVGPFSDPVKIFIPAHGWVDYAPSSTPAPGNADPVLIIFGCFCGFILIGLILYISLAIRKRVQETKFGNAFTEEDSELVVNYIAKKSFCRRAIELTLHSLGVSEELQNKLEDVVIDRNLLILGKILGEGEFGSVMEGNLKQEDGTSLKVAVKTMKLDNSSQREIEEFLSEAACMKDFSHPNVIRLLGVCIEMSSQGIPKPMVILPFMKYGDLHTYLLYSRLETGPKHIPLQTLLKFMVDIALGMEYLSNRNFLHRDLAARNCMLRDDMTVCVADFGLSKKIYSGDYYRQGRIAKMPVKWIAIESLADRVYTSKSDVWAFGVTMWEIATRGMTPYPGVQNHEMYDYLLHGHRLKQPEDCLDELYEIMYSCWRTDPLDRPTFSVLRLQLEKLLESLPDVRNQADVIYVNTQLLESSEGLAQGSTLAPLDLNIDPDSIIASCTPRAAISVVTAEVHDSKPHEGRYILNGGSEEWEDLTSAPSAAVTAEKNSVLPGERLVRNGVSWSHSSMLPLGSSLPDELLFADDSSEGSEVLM
# Sequence of Hck (P08631 whole entry, looked up, the tested form may be a part): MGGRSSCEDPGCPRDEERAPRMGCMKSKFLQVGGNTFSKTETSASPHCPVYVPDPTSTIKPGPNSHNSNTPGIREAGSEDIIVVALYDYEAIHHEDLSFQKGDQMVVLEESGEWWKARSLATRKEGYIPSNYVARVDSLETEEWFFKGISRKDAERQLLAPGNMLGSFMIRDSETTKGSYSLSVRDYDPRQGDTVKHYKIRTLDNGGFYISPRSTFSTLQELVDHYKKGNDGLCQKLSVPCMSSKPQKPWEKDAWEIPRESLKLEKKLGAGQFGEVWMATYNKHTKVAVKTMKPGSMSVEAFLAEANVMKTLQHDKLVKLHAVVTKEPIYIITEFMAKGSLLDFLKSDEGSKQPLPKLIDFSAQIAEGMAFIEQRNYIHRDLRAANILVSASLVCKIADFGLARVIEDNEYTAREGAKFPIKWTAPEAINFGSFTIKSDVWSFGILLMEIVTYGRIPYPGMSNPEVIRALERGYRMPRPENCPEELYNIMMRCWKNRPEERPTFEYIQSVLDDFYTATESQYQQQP
Sequence,SH2 binding enrichment [1],SH2 binding enrichment [2],SH2 binding enrichment [3],phosphorylation enrichment [4],phosphorylation enrichment [5],phosphorylation enrichment [6],phosphorylation enrichment [7],phosphorylation enrichment [8],phosphorylation enrichment [9],phosphorylation enrichment [10],phosphorylation enrichment [11],phosphorylation enrichment [12],phosphorylation enrichment [13],phosphorylation enrichment [14],phosphorylation enrichment [15],phosphorylation enrichment [16]
VLAHKYHGGGG [HBB_Y146_A141V],0.939,0.852,0.464,0.366,0.354,0.352,0.434,0.498,0.363,0.405,0.366,0.349,0.362,0.376,0.352,0.405
FSQQVYRVNLS [FAT4_Y480],0.827,0.882,0.48,0.495,0.563,0.516,0.762,0.729,0.623,0.532,1.01,0.49,0.48,0.658,0.409,0.392
SNKLTYGTVVF [ACOX1_Y275_M278V],0.92,4.29,0.597,1.01,0.524,0.617,0.685,0.845,5.78,0.613,8,0.466,0.725,0.777,0.416,3.09
TIAIRYSHSRR [ACOXL_Y260],0.608,0.44,0.495,0.632,0.363,0.599,0.785,0.918,0.691,0.655,0.644,0.536,0.622,0.746,0.648,0.576
IEPVIDVVQRR [ANOS1_Y217_Y217D],0.848,0.517,0.608,0.354,0.379,0.592,0.638,0.98,0.258,0.624,0.39,0.393,0.566,1.02,0.36,0.459
EFNINYNNEPP [THG1L_Y228_L232P],0.742,0.528,0.453,0.6,0.642,0.742,0.989,1.3,0.529,0.852,0.626,0.681,0.566,1.23,0.46,0.583
SVVVPYEPPEV [TP53_Y220],1.01,1.11,0.888,0.556,0.532,0.748,1,1.16,0.459,0.798,0.502,0.548,0.645,1.25,0.531,0.55
FPPTHYIRRMP [SLC4A11_Y820_V824M_YF],0.982,0.821,0.506,0.445,0.528,0.502,0.597,0.981,0.543,0.718,0.561,0.498,0.661,0.919,0.524,0.601
TESALYGCTVV [KIAA1804_Y724_L729V],0.685,0.657,0.336,5,0.783,0.802,1.17,1.43,4.43,0.888,5.73,0.517,0.833,1.18,1.83,4.37
KMKGDYFRSLA [YWHAG_Y130_Y133S_YF],0.917,0.825,0.753,0.436,0.457,0.602,0.633,0.675,0.456,0.521,0.399,0.456,0.361,0.676,0.437,0.484
MPLTEYLKQIK [CNGB3_Y200_R203Q],0.534,0.651,0.364,0.451,0.572,0.526,0.749,0.995,0.582,0.844,0.448,0.533,0.511,0.83,0.459,0.514
RQEEEYKRLSE [SFSWAP_Y133],1.02,0.539,0.469,0.892,0.574,1.22,2.31,2.21,1.2,1.43,1.02,0.693,1.15,2.53,0.804,0.888
TSYSGYRCHRH [NKAPL_Y94_Y96C],0.939,0.635,0.732,0.31,0.386,0.584,0.678,0.695,0.433,0.528,0.352,0.63,0.477,0.694,0.509,0.5
VGSEDYGWDLT [SPTAN1_Y1792_R1794W],0.824,0.852,0.515,0.463,0.602,0.726,0.967,1.16,0.419,0.724,0.384,0.489,0.732,1.2,0.36,0.443
ALVLQYLRVPL [F9_Y371],1.8,1.74,1.66,0.55,0.61,0.662,1.6,1.02,0.39,0.62,0.455,0.582,0.5,1.03,0.378,0.536
DLRTGYSVPFG [TGM1_Y370_Y365D_YF],0.973,0.928,7.49,0.486,0.44,0.644,0.576,0.721,0.341,0.794,0.48,0.493,0.468,0.664,0.364,0.418
